Experimental data published in the RNAGym collection of RNA variant scans (doi:10.1073/pnas.2313332121).

B1: TPR t1 (parent)
chain: GACCAAUCUGCCCUCAGAGCUCGAGAACAUCUUCGGAUGCAGAGGAGGCAGGCUUCGGUGGCGCGAUAGCGCCAACGUCCUCAACCUCCAAUGCAUCCCACCACAUGAUGAUGCCUGAAGAGCCUUGGUUUUUUG

Variants of: B1
Test: polymerase ribozyme fitness, log enrichment relative to wild type (log ratio); higher = more active; in vitro selection for triplet polymerase activity
Method in brief: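 Streptavidin-bead capture of gel-excised extended constructs, followed by RT-PCR, closed a single triplicate in vitro selection round. That round began by annealing PCR-built, transcribed mutant libraries of each subunit of a heterodimeric triplet polymerase ribozyme with a biotinylated primer, the partner subunit and triplets, then incubating them frozen at −7 °C. After Illumina sequencing of inputs and outputs, genotypes needed ≥10 input reads and ≥1 read per output. Fitness is the base-2 logarithm of genotype enrichment over wild-type enrichment, using inverse-variance-weighted replicate averages.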

Row | Variant | polymerase ribozyme fitness (log ratio)
1 | C28U U133G | -1.83
2 | A16G U32A A50C C88U C123G U125A | -3.77
3 | G69A C89G C97A A105C G110U | -6.73
4 | G51U G77C | -1.93
5 | G48U G57U G63A U96G A100C C102G G120C | -6.73
6 | A5G C49G G127C G128A | -2.99
7 | G77U U96A | -1.04
8 | G60U G135C | 0.0909
9 | U32C G42C C123G | 1.74
10 | C34U A41G C56U G63C C89A A95U C104G G110A | -5.19
11 | C40A G57U G122U | -2.54
12 | A46U A90U A105U C115U C124U | -5.04
13 | G17U A37C | -2.42
14 | C64U A74C A75U G110A | -1.89
15 | G61A C102G | -6.12
16 | U9A G48C C62A G77A C88U U112A | -3.81
17 | C3A G44U | -3.37
18 | U78C U112A G113A G122C U130C | -1.11
19 | C88A C123U G127U U131G | -0.279
20 | U59C C80A U81C | -3.7
21 | C11A G61A C104A G110A | -5.34

Row | Variant | polymerase ribozyme fitness (log ratio)
22 | A16G C94U | -1.93
23 | A43U G58U G113A | -2.63
24 | U21A A43C | -2.9
25 | A6G C34G C56A C70G G120U | -6.8
26 | G35C G63C | -5.87
27 | C12A G19U G57U | -3.2
28 | U78C U87G | 0.287
29 | C13U C82A C97A | -4.74
30 | U21A C62U | -0.421
31 | G71C A121U | 0.296
32 | C104A G120U G127C | -1.76
33 | U59A U81C U87A | -1.17
34 | G48A C56G | -0.92
35 | C12G G39U G61A U106C G127C | -2.63
36 | A26U C114A | -3.87
37 | C56G G127U | -1.1
38 | G42A A83C | -1.87
39 | C28A C72G | -2.92
40 | C56G U109C | -3.23
41 | U14G C73A A90U | -3.66
42 | A2U A83G | -3.47

Row | Variant | polymerase ribozyme fitness (log ratio)
43 | C80U G93C | -1.44
44 | C53U G69A A103C G120U G128C U131G | -6.03
45 | A6U U7C A41G G110A | -1.88
46 | C123G G127A | -0.249
47 | C20A G117A | -3.21
48 | C40U C76U G117A | -2.16
49 | C56A G60A U116G G135A | -3.36
50 | G58A G71A U81G U132C | -3.8
51 | C85U A95U C115A G120C | -0.474
52 | C8A C12A C79U C80U C114U | -4.99
53 | C11G G36U A43U G61A G63A C115U U125A U132A | -6.45
54 | G42A C49G C72A C94U U130A U132C | -3.26
55 | C8G C20U U32G C56G G113A U125G | -3.85
56 | C20U U38G C62G G120C | -4.8
57 | G17A C20U | -3.63
58 | C11G C56U A74U A84G G135U | -1.8
59 | C40U G44A U125A | -1.32
60 | C49U G60A A83G U133A | -0.755
61 | G44U A46U G117U | -4.65
62 | G69U G135U | -0.532
63 | C62U A84G C101A | -1.66

Row | Variant | polymerase ribozyme fitness (log ratio)
64 | C22G C94U C101G | -5.92
65 | C8G A43U U54C C114A A118G | -4.79
66 | G17A U21A G39C C56U | -4.02
67 | G93C G117A | -1.09
68 | A95U U130C | -0.986
69 | A18U C79A | -4.95
70 | U21A C53G U54G U87A U133A | -3.43
71 | C31G C34G C97A C102A G113A | -6.66
72 | G42C G47U | -4.02
73 | C8G U126C | -0.307
74 | U21A G42A A46U G60A G120A | -2.58
75 | C15G G25U A37U G69U G120C | -7.24
76 | G17U G63C C73U | -1.67
77 | U67C C123G | -4.34
78 | G39U C73U G77A | -1.39
79 | G77U U106C C124A | -3.43
80 | U7G C31U C62U A100C U106A G113A | -4.43
81 | C13A G48A U96A | -2.1
82 | U54A C124A | -0.2
83 | C13U G17U C31U U106A C115U | -1.65
